The data set is described as follows: label from the status in PepcDB records.
For the sequence “EQYEIGVKPPKPANITATYTGGVLTVRVTENGKTLTLTSNVTMPTGTGPFPVVIGMNARTGQLPTNLFNGVIQIPFNHDQVAKYTQGDRDPSYPFFQLYPNLTSNGYYSAWAWGISRLIDGIELVQAQLNADTKRIAVTGCSYAGKMALFAGAFDERIALTIAQESGGGGVNAWRVSETIGNVEKISNTNYAWFMQSLKTNFQNGNAVKLPYDHHELMAMIAPRALLVLGNPPFEWLGDESGYVSSRAAQEVWTTLGVPERFGFSFRGGHDHCSLPSASNAEVTAFVDKFLR”, the protein production entry was “failed”. In the case of “ERATPPVEPRQPPEAQPAERIVAERIVQELVRAGANLNNVRTMLRNVMDNNAVAFSRVEWNILLQHFPDMHTNGISSDSVLANELRQTLRQVVHQQRTQRALAPILSPAPSRPVASSSRSSQRTLLGRFTGWMAPRQTSSSSQAT”, the protein production result is recorded as “failed”.

With “ESEKSFRILFEKSPEGFLILDGGGNILEANPAALGMLGEEMEALQGRGVFELLQGEKIPLKEEEMNQKIERIYENRLGQEVLLETILIPAQVEGKARIFAIWRDVT”, the protein production result was “failed”. Consider “ETEDQTNMIAIQADGCYIVDALTPIEDFNERFNAEFPDDDYDTIGGLVTEAIGHLPETGDELTIGRFAFRVAKANARRIHILHVTVLP”, for which the protein production result is on record as “not failed”. Under “EYGYEDLRESSNSLLNHQLSEIDQARLYSCLDHMREVLGDAVPDDILTEAILKHKFDVQKALSVVLEQDG” stands “not failed”; under “EYISVKSQNELLEASTPHPGTRNHIPQLDVDANELALVYRARGMSEADAEQKAAEAFVNLRNAEDQAIIDEPRNDEPING”, “failed”; under “FFTPPHIVQLCVRLVDDFADGMTFHDPTVGSGGMLTEAAKYYREAQGGDPSKLTFTGQEINPDIAAIARMNLSLHTLNGEIERGDSLASPGFTDGDDLERFDRVLANFPFSADWAKDDLQDDQYGRFDWHTKLPRADRGDYAFIMHIAEQLKEPDCGDESGGKAAIVIPHGVLFRKHEQRYRQPMLENDLVEAIVGLPENLFQNNSIPSAILVLNTDKPADREGEVQFIHAADEAFYEELSNQNELTDDGLDHIVENFDDWTTE”, “failed”. With “FGLETVSENELAHSEEELRIILSESYKSGEINQSEFKYVNKIFEFDDRLAKEIMIPRTEIVSLPHDIKISEMMDIIQIEKYTRYPVEEGDKDNIIGVINIKEVLTACISGEVSVDSTISQFVNPIIHVIESAPIQDLLVKMQKERVHMAILSDEYGGTAGLVTVEDIIEEIVGEIR”, the protein production entry is recorded as “not failed”. Regarding “FGVWVLVPRSFPRCVWFQRSMAVVIRLQGLPIVAGTMDIRHFFSGLTIPDGGVHIVGGELGEAFIVFATDEDARLGMMRTGGTIKGSKVTLLLSSKTEMQNMIELSRRRFETANLDIPPANASRSGPPPSSGMSSRVNLPTTVSNFNNPSPSVVTATTSVHESNKNIQTFSTASVGTAPPNMGASFGSPTFSSTVPSTASPMNTVPPPPIPPIPAMPSLPPMPSIPPIPVPPPVPTLPPVPPVPPIPPVPSVPPMTPLPPMSGMPPLNPPPVAPLPAGMNGSGAPMNLNNNLNPMFLGPLNPVNPIQMNSQSSVKPLPINPDDLYVSVHGMPFSAMENDVRDFFHGLRVDAVHLLKDHVGRNNGNGLVKFLSPQDTFEALKRNRMLMIQRYVEVSPATERQWVAAGGHITFKQNMGPSGQTHPPPQTLPRSKSPSGQKRSRSRSPHEAGFCVYLKGLPFEAENKHVIDFFKKLDIVEDSIYIAYGPNGKATGEGFVEFRNEADYKAALCRHKQYMGNRFIQVHPITKKGMLEKIDMIRKRLQNFSYDQREMILNPEGDVNSAKVCAHITNIPFSITKMDVLQFLEGIPVDENAVHVLVDNNGQGLGQALVQFKNEDDARKSERLHRKKLNGREAFVHVVTLEDMREIEKNPPAQGKKGLKMPVPGNPAVPGMPNAGLPGVGLPSAGLPGAGLPSTGLPGSAITSAGLPGAGMPSAGIPSAGGEEHAFLTVGSKEANNGPPFNFPGNFGGSNAFGPPIPPPGLGGGAFGDARPGMPSVGNSGLPGLGLDVPGFGGGPNNLSGPSGFGGGPQNFGNGPGSLGGPPGFGSGPPGLGSAPGHLGGPPAFGPGPGPGPGPGPIHIGGPPGFASSSGKPGPTVIKVQNMPFTVSIDEILDFFYGYQVIPGSVCLKYNEKGMPTGEAMVAFESRDEATAAVIDLNDRPIGSRKVKLVLG”, the protein production entry is recorded as “not failed”. For the sequence “FPPGTPLELGKEIAVYRIDGPVFFGAAERFATFLRDEPEVKYLILRLRFVPNMDTTGLVALEDIYHDLERHNCRLILTGLQPEVKQLLERTGLLKTIGLSNCFETTTDAICSISPQIQRCSQP”, the protein production result is given as “failed”.

“FSTFDSKYDRFLRGEEKLTDQEELGRVLISSTQFTNCNTCHEIRGAKGLEDGLFTNHKYFNIGVPANTSVRAVNGSKPDAVDLGLAQNPAVAGDPAQRGKFKVPTLRNVAVTGPYMHNGVFKDLRTVVLFYVKYKSKKPSRQINPETGKTWDAPEVPENIAMTELTSAPALDDKRVDAIVAFLKTLTDRRYEHLLPKEDGQTAAPT”: the protein production result is on record as “failed”. Take “FTLEEEDITGTWYVKAMVVDKDFPEDRRPRKVSPVKVTALGGGNLEATFTFMREDRCIQKKILMRKTEEPGKFSAYGGRKLIYLQELPGTDDYVFYCKDQRRGGLRYMGKLVGRNPNTNLEALEEFKKLVQHKGLSEEDIFMPLQTGSCVLEH”: the protein production result is “failed”. In the case of “FTPDYIFTSKIDTSYVRQDIVPEINGWNIDRWIEEIACNDNQVVKLLWQVINDSMNGNYTRKKAIFFVGDGNNGKGTFQELLSNVIGYSNIASLKVNEFDERFKLSVLEGKTAVIGDDVPVGVYVDDSSNFKSVVTGDPVLVEFKNKPLYRATFKCTVIQSTNGMPKFKDKTGGTLRRLLIVPFNANFNGIKENFKIKEDYIKNQQVLEYVLYKAINLDFET”, the protein production result is on record as “failed”. In the case of “GAPFRSTVTLQPTSGSLVNLTEWPPFVITLDDVELVHFERVQFHLRNFDMIFVFKEYNKKVAMVNAIPMNMLDHVKEWLNSCDIRYSEGVQSLNWQKIMKTITDDP”, the protein production result is recorded as “failed”. As to “GAPGPCGLARQNSTSLTGKPGALPANLDDMKVAELKQELKLRSLPVSGTKTELIERLRAYQDQISPVPGAPKAPAATSILHKAGEVVVAFPAARLST”, the protein production result is listed as “failed”.

Take “GASDGGGSIRIPASFSGLIGLKPSRGSMPVGPEGWRGWQGASIDFALTISMRDTKALFYGLRGSHSGAPYQAPLAEWQTHPKKQRLKIALCTASPIGSLISPEATQAAKQAADFLAAAGHEIIEIPYPVDGAALIRSYYQMNGAETTAMMNSIQQGLGRPIRKEEIESFSWTMHQFGQKIPAATYVHSLQLWDQAAVTMEELFQKFDLFLSPTTAFSAPKINEDLQSEHIRQRMAQAAELTEAELAELIYDYFDKSLQLTPYTQLANLTGQPAISLPTHVTATGLPLGIQLLAARGREDLLFQVGEQFEQEGK”: the protein production result is recorded as “failed”.

As for “GCTLSAEERAALERSKAIEKNLKEDGISAAKDVKLLLLGAGESGKSTIVKQMKIIHEDGFSGEDVKQYKPVVYSNTIQSLAAIVRAMDTLGIEYGDKERKADAKMVCDVVSRMEDTEPFSAELLSAMMRLWGDSGIQECFNRSREYQLNDSAKYYLDSLDRIGAADYQPTEQDILRTRVKTTGIVETHFTFKNLHFRLFDVGGQRSERKKWIHCFEDVTAIIFCVALSGYDQVLHEDETTNRMHESLKLFDSICNNKWFTDTSIILFLNKKDIFEEKIKKSPLTICFPEYTGPSAFTEAVAYIQAQYESKNKSAHKEIYTHVTCATDTNNIQFVFDAVTDVIIAKNLRGCGLY”, the protein production result is on record as “failed”. Under “GDFGRHSITSGGSGGGGFRQRGSSGSSSRHTERGYSSGRSGASSYNGREGGGSGFNRREVYGGGRDSSRYSSGSSASYGRTGGQSAGRFRSRSPVGNHRF” stands “failed”; under “GDIGGIAQITSSLFLGRGSVASNRHLLQARGITCIVNATIEIPNFNWPQFEYVKVPLADMPHAPIGLYFDTVADKIHSVSRKHGATLVHCAAGVSRSATLCIAYLMKFHNVCLLEAYNWVKARRPVIRPNVGFWRQLIDYERQLFGKSTVKMVQTPYGIVPDVYEKESRHLMPYWG”, “failed”; under “GERCEPIELLSINLPEESSSRIIDIVTRRKGEMVMMENKNDRVFMEFHIPSRGIIGLNNAVLTASAGEAVIAHRFLEFQPWKGEIERRSNGSIIALESGTAYAYALNNLQSRGRFFISPQEEVYAG”, “failed”. Turning to “GFSHRSQQLLEQSVAKQLPLLERKYHQKNLEAAMVVTDIASGEIRALVGGRESGYAGFNRALNAKRHIGSLIKPAIYVAALERYQQYNFATILDDKAITLRNGTGKKWQPKNYDGKYRGQVSLIEGLVFSLNVPTINLGMSLGLDSVADAIKALGYQQKLKMRPSVLLGAVNMSPLEINQLYLAIANNGYYQKTHTITKILSSNNETLWQKQQSSEQRLSSNAAYLLDYALERVTQVGTARSLTWRLNNKKVAGKTGTSNALRDSWFIGYDSKHLITTWLGKDNNKPTGLTGSSGALPLFADFINKQGVINKVEAK”, the protein production entry was “failed”. With “GGEVHAAWHLRYAGRDFFVKCDERELLPGFTAEADQLELLSRSKTVTVPKVWAVGADRDYSFLVMDYLPPRPLDAHSAFILGQQIARLHQWSDQPQFGLDFDNALSTTPQPNTWQRRWSTFFAEQRIGWQLELAAEKGIAFGNIDAIVEHIQQRLASHQPQPSLLHGDLWSGNCALGPDGPYIFDPACYWGDRECDLAMLPLHTEQ”, the protein production entry was “failed”. Take “GKIEEVVLGATKADGGTREYTVTLGGERSLAFYTFDAPQPHLPAIAIDVFDRRPMLAKAVRMHYEDVLDNPAEWARKCVKKFGADLVTLHLISTDPLLDDTPASEAVKVLEDVLQAVKCPIIVGGSGNKEKDPEVLEKAAEVAEGERIMLASATLDMDWERIANAAKKYGHVVLSWTQMDINNQKTLNRYLLKRVEMPRDSIVMDPTTAALGYGLDYAFTNMERIRISGLKGDTDLNFPISSGTTNAWGAREAWMVDSPIEEDTPWGPRELRGPIWEIITGLTLSLAGVDLFMMMHPVAVAVLKEVFNTLGGKVSGGVADPGEWIFME”: the protein production result is given as “failed”. For the sequence “GKPKTDTDFQTYNGDGFKLQIPSKWNPNKEVEYPGQVLRFEDNFDATSNVIVAITPTDKKSITDFGSPEQFLSQVDYLLGRQAYSGKTDSEGGFESDAVAIANVLETSTAEVGGKQYYYLSILTRTADGNEGGKHQLVTATVNDGKLYICKAQAGDKRWFKGAKKFVENTATSFSLA”, the protein production result is “not failed”.

Regarding “GLDTGALDQQQNNNGRESIRTVNVSVNNAVTKIVSNMSPAVVGVVNIQKSDIWGESGEAGSGSGVIYKKNDHSAYVVTNHHVIEGASQIEISLKDGSRVSADLVGSDQLMDLAVLRVKSDKIKAVADFGNSDKVKSGEPVIAIGNPLGLEFAGSVTQGVISGTERAIPVDSNGDGQPDWNAEVLQTDAAINPGNSGGALLNMDGKVIGINSMKIAESAVEGIGLSIPSKLVIPVIEDLERYGKVKRPFLGIEMKSLSDIASYHWDETLKLPKNVTNGAVVMGVDAFSPAGKAGLKELDVITEFDGYKVNDIVDLRKRLYQKKVGDRVKVKFYRGGKEKSVDIKLSSA”, the protein production result is reported as “failed”. “GLEVTVWNRSAAACEPLVALGAARAEEVGELFGLDVVISMLADDQAIRGVLLDSGALERARPGLIHLSMSTLSLDCVEALDQAHQRQGLAFVAAPVFGRTDVAEAGKLNIVVGGPEEAIEQVKALLEIMGQKTWFFGKDPRGAMAVKISGNFMIASAIESMGESVALVKRLGVEPGRFMELMSSTLFDAPVYRNYGPQIVEQRFTPARFRLVLGLKDVDLALSAGKRHNVPLPLASLLHDVLLEAIAHGDGESDWTALAKVALSRSGQI”: the protein production result was “failed”.

For the origin of these results see a protein production outcome set (Wang et al. 2014).
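Also: failed if final PepcDB status was selected cloned or expressed and not failed if soluble or beyond.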
